Experimental data taken from US12226490B2, “Anti-ROR1 antibody conjugates, compositions comprising anti ROR1 antibody conjugates, and methods of making and using anti-ROR1 antibody conjugates preliminary class” (Sutro Biopharma, Inc., priority 2022, dated 2025).
Positions count from the first letter of the chain named.

B1: Conjugate 4 (conjugate)
heavy: MEVQLVESGGGLVQPGGSLRLSCAASGFNISDYDIHWVRQAPGKGLEWVGGIDPADGSTDYADSVKGRFTISADTSKNTAYLQMNSLRAEDTAVYYCARDYGVYDYWGQGTLVTVSSASTKGPSVFPLAPSSKSTSGGTAALGCLVKDYFPEPVTVSWNSGALTSGVHTFPAVLQSSGLSLSSVVTVPSSSLGTQTYICNVNHKPSNTKVDKKVEPKSCDKTHTCPPCPAPELLGGPSVFLFPPKPKDTLMISRTPEVTCVVVDVSHEDPEVKFNWYVDGVEVHNAKTKPREEQYNSTYRVVSVLTVLHQDWLNGKEYKCKVSNKALPAPIEKTISKAKGQPREPQVYTLPPSREEMTKNQVSLTCLVKGFYPSDIAVEWESNGQPENNYKTTPPVLDSDGSFLYSKLTVDKSRWQQGNVFSCSVMHEALHNHYTQKSLSLSPGK
light: MDIQMTQSPSSLSASVGDRVTITCRASQDVNTAVAWYQQKPGAPKLLIYSASFLYSGVPSRFSGSRSGTDFTLTISSLQPEDFATYYCQQHYTTPPTFGQGTKVEIKRTVAAPSVFIFPPSDEQLKSGTASVVCLLNNFYPREAKVQWKVDNALQSGNSQSVTEQDSKDSTYSLSSTLTLSKADYEKHKVYACEVTHQGLSSPVTKSFNRGEC
B2: 1987-C05 HC w/hUCHT1 LC3: HC of lead antibody 1987-C05 co-expressed with LC "derived from anti-CD3 antibodies": hUCHT1-LC3 (antibody, V domains shown)
VH: EVQLVESGGGLVQPGGSLRLSCAASGFNISDYDIHWVRQAPGKGLEWVGGIDPDDGSTDYADSVKGRFTISADTSKNTAYLQMNSLRAEDTAVYYCARDYGVFDYWGQGTLVTVSS
VL: DIQMTQSPSTLSASVGDRVTITCRASQDIRNYLNWYQQKPGKAPKLLIYYTSRLHSGVPSRFSGSGSGTEYTLTISSLQPDDFATYYCQQGNTLPWTFGGGTKVEIK
B3: SRP2196-C01 (antibody, V domains shown)
VH: EVQLVESGGGLVQPGGSLRLSCAASGFNIIGYYIHWVRQAPGKGLEWVGSITPLSGATSKADSVKGRFTISADTSKNTAYLQMNSLRAEDTAVYYCARDSRRYIRSWDYWGQGTLVTVSS
VL: QAVVTQESALTTSPGETVTLTCRSSTGAVTTSNYANWVQEKPDHLFTGLIGGTNKRAPGVPARFSGSLIGDKAALTITGAQTEDEAIYFCALWYSNLWVFGGGTKLTVL
B4: SRP2196-C02 (antibody, V domains shown)
VH: EVQLVESGGGLVQPGGSLRLSCAASGFNITGYHIHWVRQAPGKGLEWVGFISPNSGWTYSADSVKGRFTISADTSKNTAYLQMNSLRAEDTAVYYCARDSRRYVRPFDYWGQGTLVTVSS
VL: B3 VL
B5: SRP2196-C03 (antibody, V domains shown)
VH: B4 VH with H33Y, F50Q, W57S, N84S, R105L, P106S, F107W
VL: B3 VL
B6: SRP2196-C04 (antibody, V domains shown)
VH: B4 VH with H33Y, S52A, N54L, W57S, Y59H, S60N, D99E, R105N, F107W
VL: B3 VL

What was measured:
[1] = test system: ROR1 negative MCF7 cells; assay: In vitro cell killing of ROR1 ADCs, ROR1 negative cells (Cell Titer-Glo, 120 hours); format: cell-based, human; details: Table 13
Description: (§1) Ntera-2, MDA-MB-231, MCF7, HCT116 and Mino cells were obtained from ATCC. HCT116-hRor1-D02 clone was generated by transfecting HCT116 cells with a plasmid containing human Ror1 cDNA sequence and selected for highest stable expression of hRor1 on the cell surface. MDA-MB-231, MCF7, HCT116 and HCT116-Ror1 cell were maintained in Ham's F-12 high glucose DMEM (50-50) (Cellgro-Mediatech; Manassas, VA) supplemented with 10% heat-inactivated fetal bovine serum (Hyclone; Thermo Scientific; Waltham, MA), 1% Penicillin/Streptomycin (Cellgro-Mediatech; Manassas, VA) and 2 mmol/L-glutamax (Life Technology; Carlsbad, CA). Mino cells were maintained in RPMI-1640 medium (Cellgro-Mediatech; Manassas, VA) supplemented with 20% heat-inactivated fetal bovine serum (Hyclone; Thermo Scientific; Waltham, MA), 1% Penicillin/Streptomycin (Cellgro-Mediatech; Manassas, VA) and 2 mmol/L-glutamax (Life Technology; Carlsbad, CA).
(§2) Anti-ROR1 antibody was conjugated to different linker-warheads described herein at different DARs and the cell killing activity of the ADCs were evaluated on ROR1 positive Ntera-2 cell and ROR1 negative MCF7 cells.
(§3) Ntera-2 or MCF7 cell at 625 cells/25 μL were seeded in a 384-well flat bottom white polystyrene plate one day before the assay start. ADCs were formulated at 2× starting concentration. Filter sterilized samples were serial diluted (1:3) under sterile conditions and added onto cells in triplicates. Plates were cultured at 37° C. in a CO2 incubator for 120 hours. […] Relative luminescence was measured on an ENVISION® plate reader (Perkin-Elmer; Waltham, MA). Relative luminescence readings were converted to % viability using untreated cells as controls. […]
(§4) To evaluate if the cell killing activity of anti-ROR1 ADCs is dependent on antibody binding to ROR1 expressed on cell surface, the same linker-warheads (LP3, LP4) were conjugated to an anti-GFP antibody and the cell killing of the anti-ROR1 and anti-GFP ADCs were evaluated in cell killing assays on ROR1 positive Ntera-2 cell and ROR1 negative MCF7 cells.

[2] = test system: ROR1 positive Ntera-2 cell; assay: In vitro cell killing of ROR1 ADCs, ROR1 positive cells (Cell Titer-Glo, 120 hours); format: cell-based, human; details: Table 13
Description: as §1, §2, §3, §4

[3] = test system: MDA-MB-231 tumor; assay: MDA-MB-231 TNBC xenograft model; format: in vivo, SCID/beige mice
Method: (§5) The activities of ROR1-targeted ADCs described herein were examined in a MDA-MB-231 TNBC xenograft model. Briefly, SCID/beige mice were implanted subcutaneously with 5×10^6 MDA-MB-231 tumor cells in the mammary fat pad and randomized and enrolled into the study 7 days post implant, with tumor sizes around 130 mm^3. Tumor-bearing mice were administered four weekly doses (qw×4) of the test articles at doses ranging from 2 mg/kg to 5 mg/kg. All treatments were well tolerated with normal body weight gain throughout the course of the study.
as §5, with “SCID/beige” for “The activities of ROR1-targeted ADCs described herein were examined in a MDA-MB-231 TNBC xenograft model. Briefly, SCID/beige”
as §5, with “SCID/beige” for “The activities of ROR1-targeted ADCs described herein were examined in a MDA-MB-231 TNBC xenograft model. Briefly, SCID/beige”, “three” for “four”, “(qw×3)” for “(qw×4)”, “study. […]” for “study.”

[4] = target: T1, hROR1 (ROR1-extracellular domain) (Homo sapiens, UniProt Q01973); assay: Biacore off-rate and kinetic analysis, ROR1 extracellular domain; format: binding; details: Sample ROR1 ECD, SPR
T1 construct: the ROR1-extracellular domain (hROR1); purchased Acro Biosystems
Method: Anti-Fc polyclonal antibodies were immobilized onto a CM5 chip (GE Life Sciences) using amine coupling chemistry (from Amine Coupling Kit, GE Life Sciences). The immobilization steps were carried out at a flow rate of 25 μL/min in 1×HBS-EP+ buffer (GE Life Sciences; 10× Stock diluted before use). The sensor surfaces were activated for 7 min with a mixture of NHS (0.05 M) and EDC (0.2 M). The Anti-Fc antibodies were injected over all 4 flow cells at a concentration of 25 ug/ml in 10 mM sodium acetate, pH 4.5, for 7 min. Ethanolamine (1 M, pH 8.5) was injected for 7 min to block any remaining activated groups. […]
(§6) The data was fit with the Biacore T200 Evaluation software, using a 1-1 Langmuir binding model. KD (affinity, nM) was determined as a ratio of the kinetic rate constants calculated from the fits of the association and dissociation phases.
For anti-CD3-LC-containing IgGs that had detectable ROR1-binding in ELISA (1944-A07 and 1987-C05 variants), those antibodies were further tested for binding by surface plasmon resonance (SPR). Binding kinetics were assessed to the ROR1-frizzled domain (hROR1-Fz) or the ROR1-extracellular domain (hROR1) for 1944-A07 and 1987-C05 variants, respectively. […] KD (affinity, nM) was determined as a ratio of the kinetic rate constants calculated from the fits of the association and dissociation phases.

[5] = Differential scanning fluorimetry (protein thermal shift; TM1 Fc, TM2 Fab); format: physicochemical; details: melting temperature of the Fab domain; Table 11
Method: A protein thermal shift assay was carried out by mixing the protein to be assayed with an environmentally sensitive dye (SYPRO Orange, Life Technologies Cat #S-6650) in a phosphate buffered solution (PBS), and monitoring the fluorescence of the mixture in real time as it underwent controlled thermal denaturation. Protein solutions between 0.2-2 mg/mL were mixed at a 1-1 volumetric ratio with a 1-500 PBS-diluted solution of SYPRO Orange (SYPRO Orange stock dye is 5000× in DMSO). 10 μL aliquots of the protein-dye mixture were dispensed in quadruplicate in a 384-well microplate (Bio-Rad Cat #MSP-3852), and the plate was sealed with an optically clear sealing film (Bio-Rad Cat #MSB-1001) and placed in a 384-well plate real-time thermocycler (Bio-Rad CFX384 Real Time System). The protein-dye mixture was heated from 25° C. to 95° C., at increments of 0.1° C. per cycle (˜1.5° C. per minute), allowing 3 seconds of equilibration at each temperature before taking a fluorescence measurement. At the end of the experiment, the transition melting temperatures (TM1 and TM2) were determined using the Bio-Rad CFX manager software. TM1 represents the melting temperature of the Fc domain. TM2 represents the melting temperature of the Fab domain.
For the thermal stability of an antibody, the first melting peak (Tm1) coincides with the unfolding of the CH2 domain (FC stability), while the second melting peak (Tm2) occurs upon unfolding of the Fab domain.

[6] = target: T2, human ROR1-Fz (Homo sapiens, UniProt Q01973); assay: Biacore off-rate and kinetic analysis, ROR1 frizzled domain; format: binding; details: Table 11 (SP34 light chain)
T2 construct: Frizzled (Fz, residues 165-305); HIS6 (C); purchased Acro Biosystems; host or cells: HEK293
Method: Anti-Fc polyclonal antibodies were immobilized onto a CM5 chip (GE Life Sciences) using amine coupling chemistry (from Amine Coupling Kit, GE Life Sciences). The immobilization steps were carried out at a flow rate of 25 μL/min in 1×HBS-EP+ buffer (GE Life Sciences; 10× Stock diluted before use). The sensor surfaces were activated for 7 min with a mixture of NHS (0.05 M) and EDC (0.2 M). The Anti-Fc antibodies were injected over all 4 flow cells at a concentration of 25 ug/ml in 10 mM sodium acetate, pH 4.5, for 7 min. Ethanolamine (1 M, pH 8.5) was injected for 7 min to block any remaining activated groups. An average of 12,000 response units (RU) of capture antibody was immobilized on each flow cell.
Off-rate and kinetic binding experiments were performed at 25° C. using 1×HBS-EP+ buffer. Test and control antibodies were injected over the anti-Fc surface at concentrations of 5-10 μg/mL for 12 seconds at a flow rate of 10 μL/min on flow cells 2, 3 and 4, followed by a buffer wash for 30 seconds at the same flow rate. Kinetic characterization of antibody samples was carried out with a range of antigen concentrations from 1-100 nM and 1 injection of 0 nM antigen (for example, 100, 50, 25, 6.25, 1.56 and 0 nM). After capturing ligand (antibody) on the anti-Fc surface, the analyte (hROR1, Fz or Kr domains, Acro Biosystems, Delaware) was bound for 180 seconds, followed by a 600 second dissociation phase at a flow rate of 50 μL/min. Between each ligand capture and analyte binding cycle, regeneration was carried out using 2 injections of 10 mM Glycine pH 2.0 for 30 seconds at 30 μL/min, followed by a 30 second buffer wash step.
as §6
For anti-CD3-LC-containing IgGs that had detectable ROR1-binding in ELISA (1944-A07 and 1987-C05 variants), those antibodies were further tested for binding by surface plasmon resonance (SPR). Binding kinetics were assessed to the ROR1-frizzled domain (hROR1-Fz) or the ROR1-extracellular domain (hROR1) for 1944-A07 and 1987-C05 variants, respectively. Briefly, anti-ROR1 antibodies were captured via anti-human Fc polyclonal antibodies immobilized to a CM5 chip, and ROR1 recombinant proteins were flowed across the surface to assess binding kinetics. hROR1 or hROR1-Fz domain (Acro Biosystems, Delaware) binding was tested at 100, 50, 25, 6.25, 1.5625 nM. The data was fit with the Biacore™ T200 Evaluation software, using a 1-1 Langmuir binding model. KD (affinity, nM) was determined as a ratio of the kinetic rate constants calculated from the fits of the association and dissociation phases.

Molecule	TM2 [5] [°C]	Biacore human ROR1-Fz ka [6] [M⁻¹ s⁻¹]	Biacore human ROR1-Fz kd [6] [s⁻¹]	also measured
CC[C@@]1(O)C(=O)OCc2c1cc1n(c2=O)Cc2c-1nc1cc(F)c(C)c3c1c2[C@@H](NC(=O)CO)CC3 [Dxd]				MCF-7 Span [1]: 63%; NTERA-2 Span [2]: 99%
COc1cccc2c1C(=O)c1c(O)c3c(c(O)c1C2=O)C[C@@](O)(C(=O)NCCN)C[C@@H]3O[C@H]1C[C@H]2[C@H](O[C@@H]3[C@@H](OC)OCCN32)[C@H](C)O1 [PNU-EDA]				MCF-7 Span [1]: 85%; NTERA-2 Span [2]: 99%
B1				TGI ([3]; Example 20, day 42, 2 mg/kg qw×4): 36%; TGI ([3]; Example 21, day 43, 5 mg/kg qw×4): 23%
B2				kd1 [4]: 0.000645 s⁻¹; ka1 ([4]; 1-1 Langmuir): 566000 M⁻¹ s⁻¹
B3	70	125000	0.000457	
B4	67	119000	0.00036	
B5	69	143000	0.000461	
B6	70	131000	0.000704	
